In paper PMC7157769:

Key:
Assay in all cases: ELISA; affinity-based ELISA; 5 ug/ml of each dockerin-containing enzyme immobilised on a MaxiSorp plate; CBM-Coh modules applied at 0.01 ng/ml to 100 ug/ml (Fig. S4: 1 or 10 ug/ml); detected with rabbit anti-CBD
[1] = target: GH9B (GH9B-CBM3c-Doc), dockerin-containing glycoside hydrolase of C. saccharoperbutylacetonicum (Clostridium saccharoperbutylacetonicum N1-4 (HMT))
[2] = target: GH48A (GH48A-Doc), dockerin-containing glycoside hydrolase of C. saccharoperbutylacetonicum (Clostridium saccharoperbutylacetonicum N1-4 (HMT))
[3] = target: GH44A (GH44A-Doc), dockerin-containing glycoside hydrolase of C. saccharoperbutylacetonicum (Clostridium saccharoperbutylacetonicum N1-4 (HMT))
[4] = target: GH5B (GH5B-Doc), dockerin-containing glycoside hydrolase of C. saccharoperbutylacetonicum (Clostridium saccharoperbutylacetonicum N1-4 (HMT))
[5] = target: GH74A (GH74A-Doc), dockerin-containing glycoside hydrolase of C. saccharoperbutylacetonicum (Clostridium saccharoperbutylacetonicum N1-4 (HMT))

Substance: X2-Coh1 of the scaffoldin ScaA, fused to a CBM cassette (domain or fragment)
- pEC50 [1]: 0.7
- pEC50 [2]: 3
- pEC50 [3]: 4
- pEC50 [4]: 2.5

Substance: X2-Coh2 of the scaffoldin ScaA, fused to a CBM cassette (domain or fragment)
- pEC50 [1]: 2.4
- pEC50 [5]: 4
- pEC50 [3]: 4
